One assay addresses T1, YFP-NEDD4, P46934.
T1 chain: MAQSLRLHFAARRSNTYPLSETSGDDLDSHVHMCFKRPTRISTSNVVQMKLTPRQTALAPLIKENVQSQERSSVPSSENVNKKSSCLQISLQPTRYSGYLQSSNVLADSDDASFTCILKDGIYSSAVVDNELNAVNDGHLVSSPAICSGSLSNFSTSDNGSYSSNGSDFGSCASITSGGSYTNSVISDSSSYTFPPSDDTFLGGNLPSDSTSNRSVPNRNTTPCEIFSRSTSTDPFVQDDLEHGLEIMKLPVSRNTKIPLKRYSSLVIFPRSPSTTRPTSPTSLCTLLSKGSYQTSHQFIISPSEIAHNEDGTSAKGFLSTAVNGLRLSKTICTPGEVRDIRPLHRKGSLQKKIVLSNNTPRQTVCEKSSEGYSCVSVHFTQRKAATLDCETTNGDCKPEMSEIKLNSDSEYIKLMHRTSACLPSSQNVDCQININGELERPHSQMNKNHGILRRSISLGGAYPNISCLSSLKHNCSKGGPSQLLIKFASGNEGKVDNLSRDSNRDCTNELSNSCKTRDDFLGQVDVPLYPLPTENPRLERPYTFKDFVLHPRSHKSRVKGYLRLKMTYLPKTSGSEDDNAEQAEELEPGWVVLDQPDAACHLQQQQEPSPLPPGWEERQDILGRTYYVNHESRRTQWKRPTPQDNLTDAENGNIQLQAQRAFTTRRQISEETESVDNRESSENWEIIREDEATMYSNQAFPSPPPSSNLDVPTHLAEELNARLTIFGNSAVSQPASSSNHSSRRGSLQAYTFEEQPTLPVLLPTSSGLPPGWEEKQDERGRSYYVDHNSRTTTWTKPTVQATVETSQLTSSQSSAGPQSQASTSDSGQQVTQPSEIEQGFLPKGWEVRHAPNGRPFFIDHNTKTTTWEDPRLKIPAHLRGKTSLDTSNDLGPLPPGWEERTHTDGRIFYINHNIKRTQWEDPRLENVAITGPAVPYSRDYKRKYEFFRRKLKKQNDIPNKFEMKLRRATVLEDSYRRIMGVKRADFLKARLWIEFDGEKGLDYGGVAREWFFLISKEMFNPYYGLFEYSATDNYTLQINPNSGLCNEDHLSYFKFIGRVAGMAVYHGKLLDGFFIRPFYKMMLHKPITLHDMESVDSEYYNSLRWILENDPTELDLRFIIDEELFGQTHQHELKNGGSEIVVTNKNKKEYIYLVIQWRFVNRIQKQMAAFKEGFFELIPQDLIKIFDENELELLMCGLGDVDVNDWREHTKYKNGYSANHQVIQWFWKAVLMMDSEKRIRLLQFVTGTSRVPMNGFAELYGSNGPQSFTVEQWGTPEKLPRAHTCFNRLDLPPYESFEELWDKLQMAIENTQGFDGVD
The assay can be described thus: bead binding assay, fluorescence microscopy of YFP-NEDD4 on ALFA-TXNIP beads. Conditions: chain shown with the change, value is the box-plot median, n = 40 beads, lysate of HEK293T cells over-expressing YFP-NEDD4, ctrl beads est. 20, parent: est. 38, read off a plot.

Assay [1] addresses T2, NEDD4, endogenous in HEK293T, P46934.
T2 chain: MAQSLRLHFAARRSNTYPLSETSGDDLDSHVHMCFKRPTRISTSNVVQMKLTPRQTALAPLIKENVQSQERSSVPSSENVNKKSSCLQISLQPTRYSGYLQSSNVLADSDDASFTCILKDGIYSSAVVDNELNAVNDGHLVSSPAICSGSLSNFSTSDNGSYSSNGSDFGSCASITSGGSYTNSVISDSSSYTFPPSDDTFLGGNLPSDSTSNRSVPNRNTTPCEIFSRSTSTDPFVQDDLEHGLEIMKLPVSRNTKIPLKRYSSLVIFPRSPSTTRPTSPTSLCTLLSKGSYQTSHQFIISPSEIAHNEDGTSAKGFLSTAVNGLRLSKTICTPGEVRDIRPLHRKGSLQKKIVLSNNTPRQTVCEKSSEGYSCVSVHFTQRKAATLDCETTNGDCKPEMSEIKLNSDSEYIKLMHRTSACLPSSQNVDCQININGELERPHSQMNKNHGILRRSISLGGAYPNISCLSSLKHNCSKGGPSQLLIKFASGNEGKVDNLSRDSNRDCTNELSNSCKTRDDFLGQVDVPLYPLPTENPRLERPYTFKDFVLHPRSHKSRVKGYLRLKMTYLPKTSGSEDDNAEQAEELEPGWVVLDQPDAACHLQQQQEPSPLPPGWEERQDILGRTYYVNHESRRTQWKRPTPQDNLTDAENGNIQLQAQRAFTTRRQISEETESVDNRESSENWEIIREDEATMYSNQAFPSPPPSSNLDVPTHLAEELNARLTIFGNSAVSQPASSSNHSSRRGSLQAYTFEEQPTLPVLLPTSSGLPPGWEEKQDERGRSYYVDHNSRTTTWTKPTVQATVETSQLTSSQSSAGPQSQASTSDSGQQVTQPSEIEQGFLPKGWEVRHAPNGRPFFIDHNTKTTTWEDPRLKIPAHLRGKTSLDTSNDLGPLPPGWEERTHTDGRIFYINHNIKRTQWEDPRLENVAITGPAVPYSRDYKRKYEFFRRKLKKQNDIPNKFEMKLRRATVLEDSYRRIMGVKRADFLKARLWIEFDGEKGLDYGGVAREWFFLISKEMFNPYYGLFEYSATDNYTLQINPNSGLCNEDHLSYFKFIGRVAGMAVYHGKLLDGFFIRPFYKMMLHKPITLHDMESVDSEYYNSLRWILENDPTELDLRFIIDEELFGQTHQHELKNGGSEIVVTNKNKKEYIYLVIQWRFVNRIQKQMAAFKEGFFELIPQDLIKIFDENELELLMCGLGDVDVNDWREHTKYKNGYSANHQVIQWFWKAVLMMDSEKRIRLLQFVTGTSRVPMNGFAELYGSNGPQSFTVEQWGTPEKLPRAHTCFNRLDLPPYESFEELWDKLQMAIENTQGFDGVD
The assay can be described thus: co-immunoprecipitation of ALFA-TXNIP, label-free quantitative interactome (mass spectrometry). Conditions: chain shown with the change, immunoprecipitated from HEK293T cells, n = 3, read off a plot; for response (normalized abundance): abundances normalized to unspecific background binding to empty beads, scatter plot.

B1: ALFA-tagged TXNIP (thioredoxin interacting protein), expressed in HEK293T, Q9H3M7 PPCY331AACA (protein)
chain: MVMFKKIKSFEVVFNDPEKVYGSGEKVAGRVIVEVCEVTRVKAVRILACGVAKVLWMQGSQQCKQTSEYLRYEDTLLLEDQPTGENEMVIMRPGNKYEYKFGFELPQGPLGTSFKGKYGCVDYWVKAFLDRPSQPTQETKKNFEVVDLVDVNTPDLMAPVSAKKEKKVSCMFIPDGRVSVSARIDRKGFCEGDEISIHADFENTCSRIVVPKAAIVARHTYLANGQTKVLTQKLSSVRGNHIISGTCASWRGKSLRVQKIRPSILGCNILRVEYSLLIYVSVPGSKKVILDLPLVIGSRSGLSSRTSSMASRTSSEMSWVDLNIPDTPEAAACAMDVIPEDHRLESPTTPLLDDMDGSQDSPIFMYAPEFKFMPPPTYTEVDPCILNNNVQ
For B1, in the assay with YFP-NEDD4, P46934 (printed p=0.2365 against ALFA-TXNIP), the response was found to be 35 A.U. Further, in assay [1] (parent: est. 4.5e8), the response (normalized abundance) was determined as 1.2e+08. This molecule also displayed an other: log2 PPxY331/WT in assay [1] of -1.7 log2.

B2: ALFA-tagged TXNIP (thioredoxin interacting protein), expressed in HEK293T, Q9H3M7 PPCY331AACA; PPTY375AATA (protein)
chain: MVMFKKIKSFEVVFNDPEKVYGSGEKVAGRVIVEVCEVTRVKAVRILACGVAKVLWMQGSQQCKQTSEYLRYEDTLLLEDQPTGENEMVIMRPGNKYEYKFGFELPQGPLGTSFKGKYGCVDYWVKAFLDRPSQPTQETKKNFEVVDLVDVNTPDLMAPVSAKKEKKVSCMFIPDGRVSVSARIDRKGFCEGDEISIHADFENTCSRIVVPKAAIVARHTYLANGQTKVLTQKLSSVRGNHIISGTCASWRGKSLRVQKIRPSILGCNILRVEYSLLIYVSVPGSKKVILDLPLVIGSRSGLSSRTSSMASRTSSEMSWVDLNIPDTPEAAACAMDVIPEDHRLESPTTPLLDDMDGSQDSPIFMYAPEFKFMPAATATEVDPCILNNNVQ
As for B2, in the assay with YFP-NEDD4, P46934 (printed p<0.0001 against ALFA-TXNIP), the response was 19 A.U. For the same molecule, the response (normalized abundance) in assay [1] (parent: est. 5.0e8) is 1e+08. For the same molecule, the other: log2 PPxY/WT in assay [1] (volcano plot) was -2.2 log2.

These data come from PMC12669767.
